# In article PMC9569552 (International Journal of Molecular Sciences, 2022):
# B1: Emibetuzumab-IgG4 (Emi-IgG4) antibody (antibody, V domains shown)
# VH: QVQLVQSGAEVKKPGASVKVSCKASGYTFTDYYMHWVRQAPGQGLEWMGRVNPNRRGTTYNQKFEGRVTMTTDTSTSTAYMELRSLRSDDTAVYYCARANWLDYWGQGTTVTVSS
# VL: DIQMTQSPSSLSASVGDRVTITCSVSSSVSSIYLHWYQQKPGKAPKLLIYSTSNLASGVPSRFSGSGSGTDFTLTISSLQPEDFATYYCQVYSGYPLTFGGGTKVEIK
# notes: heavy chain of emibetuzumab, IgG4; disclosed in WO 2010/059654; kappa light chain of emibetuzumab; IgG4; also called emibetuzumab analog; source: 293F cells, transiently co-transfected, purified from the supernatant (Protein A); copies: 2 + 2
# Target: T1, antigen c-MET (Homo sapiens (assumed), UniProt P08581)
# T1 construct: c-MET used as antigen in the ForteBio Octet experiment; the construct of the antigen is unknown; also called mesenchymal-epithelial transition protein
# Test: BLI; ForteBio Octet; who was immobilised and the conditions not given; KD from ForteBio Data Analysis Software 8.0; values compared 'if normalized to the same number of epitope of c-MET'
# T1 sequence (P08581 25-1390): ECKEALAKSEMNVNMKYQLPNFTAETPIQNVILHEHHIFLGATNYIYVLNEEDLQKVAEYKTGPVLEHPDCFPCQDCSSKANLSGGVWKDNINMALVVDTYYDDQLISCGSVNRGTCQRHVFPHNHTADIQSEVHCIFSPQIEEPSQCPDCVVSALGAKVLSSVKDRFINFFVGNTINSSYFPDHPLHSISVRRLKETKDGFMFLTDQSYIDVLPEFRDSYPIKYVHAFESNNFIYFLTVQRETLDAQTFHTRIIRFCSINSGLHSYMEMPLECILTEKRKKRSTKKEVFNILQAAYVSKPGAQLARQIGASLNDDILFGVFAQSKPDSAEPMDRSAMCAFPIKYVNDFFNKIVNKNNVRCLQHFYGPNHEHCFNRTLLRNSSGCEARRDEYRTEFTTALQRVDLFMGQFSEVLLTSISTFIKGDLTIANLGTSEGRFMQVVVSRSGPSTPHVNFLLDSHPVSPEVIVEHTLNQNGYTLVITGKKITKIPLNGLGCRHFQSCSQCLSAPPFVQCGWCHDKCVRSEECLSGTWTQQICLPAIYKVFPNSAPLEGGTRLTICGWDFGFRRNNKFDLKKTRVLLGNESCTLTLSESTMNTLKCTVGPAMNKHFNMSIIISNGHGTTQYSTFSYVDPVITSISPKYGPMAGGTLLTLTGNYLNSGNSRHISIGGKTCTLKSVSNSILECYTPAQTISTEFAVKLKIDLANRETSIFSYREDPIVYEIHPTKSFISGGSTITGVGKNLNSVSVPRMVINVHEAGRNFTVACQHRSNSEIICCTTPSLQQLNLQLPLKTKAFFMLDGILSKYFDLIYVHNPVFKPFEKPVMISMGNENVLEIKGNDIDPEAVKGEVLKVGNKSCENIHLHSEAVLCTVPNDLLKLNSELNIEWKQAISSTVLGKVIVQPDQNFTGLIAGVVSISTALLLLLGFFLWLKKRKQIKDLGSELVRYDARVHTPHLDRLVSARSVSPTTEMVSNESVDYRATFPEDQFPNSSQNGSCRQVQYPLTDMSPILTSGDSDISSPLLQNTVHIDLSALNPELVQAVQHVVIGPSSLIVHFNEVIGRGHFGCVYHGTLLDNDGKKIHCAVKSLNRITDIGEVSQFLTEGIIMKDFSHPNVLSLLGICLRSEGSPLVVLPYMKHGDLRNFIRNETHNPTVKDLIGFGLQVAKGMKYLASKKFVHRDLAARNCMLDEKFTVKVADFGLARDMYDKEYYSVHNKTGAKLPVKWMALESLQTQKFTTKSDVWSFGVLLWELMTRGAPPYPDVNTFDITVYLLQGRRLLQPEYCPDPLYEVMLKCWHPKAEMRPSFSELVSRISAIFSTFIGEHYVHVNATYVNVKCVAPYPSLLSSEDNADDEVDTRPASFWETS
binder,measurement,value
B1,Kd,0.65 nM
